Consider one molecule from patent US20220016257A1 (Daiichi Sankyo, published 2022).

Test [1] has as its target T1, human CDH6 (full-length, on cells) (human, UniProt P55285 54-790).
T1 construct: also called hCDH6; full-length hCDH6
T1 sequence: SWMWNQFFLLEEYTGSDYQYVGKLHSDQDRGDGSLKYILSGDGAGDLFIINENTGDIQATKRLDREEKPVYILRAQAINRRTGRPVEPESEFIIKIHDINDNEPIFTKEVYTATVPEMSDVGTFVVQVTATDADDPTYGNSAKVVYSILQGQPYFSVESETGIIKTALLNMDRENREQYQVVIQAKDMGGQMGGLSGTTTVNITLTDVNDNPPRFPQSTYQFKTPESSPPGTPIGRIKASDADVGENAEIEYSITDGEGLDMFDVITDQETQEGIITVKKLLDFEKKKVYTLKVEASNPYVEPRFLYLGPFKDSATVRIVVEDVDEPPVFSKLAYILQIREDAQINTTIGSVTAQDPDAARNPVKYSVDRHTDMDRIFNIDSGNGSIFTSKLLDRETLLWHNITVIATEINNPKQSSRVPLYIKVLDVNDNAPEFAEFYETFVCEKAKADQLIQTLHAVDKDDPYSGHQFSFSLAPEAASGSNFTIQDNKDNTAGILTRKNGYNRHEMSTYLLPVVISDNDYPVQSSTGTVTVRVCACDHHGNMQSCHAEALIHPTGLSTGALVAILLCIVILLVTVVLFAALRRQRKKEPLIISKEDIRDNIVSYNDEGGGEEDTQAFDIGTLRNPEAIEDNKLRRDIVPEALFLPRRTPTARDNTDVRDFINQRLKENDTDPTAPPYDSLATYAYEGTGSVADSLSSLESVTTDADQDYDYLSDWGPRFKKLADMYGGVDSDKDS
Description: flow cytometry, 293T cells transiently transfected with pcDNA3.1-hCDH6 (open) against untransfected 293T cells (shaded), antibody 10 ng/mL, anti-rat IgG-FITC. Here is the method: The human CDH6-binding activity of the rat anti-CDH6 antibody produced in Example 1)-7 was evaluated by flow cytometry. […] The cells were cultured overnight under conditions of 37° C. and 5% C02, treated with TrypLE Express (Thermo Fisher Scientific Inc.), and thereafter, a cell suspension was prepared. […] Thereafter, the cells were suspended by the addition of the rat anti-CDH6 monoclonal antibody (clone No: rG019), which had been prepared in Example 1)-7, or rat IgG control (R&D Systems, Inc.) (final concentration: 10 ng/mL). The cells were left standing at 4° C. for 1 hour. The cells were washed twice with PBS supplemented with 5% FBS, and then suspended by the addition of Anti-Rat IgG (whole molecule)-FITC antibody produced in rabbit (Sigma-Aldrich Co. LLC) that had been 50-fold diluted with PBS supplemented with 5% FBS. The cells were left standing at 4° C. for 1 hour. The cells were washed twice with PBS supplemented with 5% FBS, followed by detection using a flow cytometer (FC500; Beckman Coulter, Inc.). The data was analyzed using FlowJo (TreeStar, Inc.). In the histogram of FIG. 1, the abscissa depicts FITC fluorescence intensity indicating the amount of the antibody bound, and the ordinate depicts a cell count. […] The rat IgG control binds to neither of the cells.

For test [2], the target named is T2, cynomolgus monkey CDH6 (full-length, on cells) (cynomolgus monkey, UniProt P55285 54-790 (human entry)).
T2 construct: Expressed from pcDNA3.1-cynoCDH6 on transfected cells; also called cynoCDH6
T2 sequence: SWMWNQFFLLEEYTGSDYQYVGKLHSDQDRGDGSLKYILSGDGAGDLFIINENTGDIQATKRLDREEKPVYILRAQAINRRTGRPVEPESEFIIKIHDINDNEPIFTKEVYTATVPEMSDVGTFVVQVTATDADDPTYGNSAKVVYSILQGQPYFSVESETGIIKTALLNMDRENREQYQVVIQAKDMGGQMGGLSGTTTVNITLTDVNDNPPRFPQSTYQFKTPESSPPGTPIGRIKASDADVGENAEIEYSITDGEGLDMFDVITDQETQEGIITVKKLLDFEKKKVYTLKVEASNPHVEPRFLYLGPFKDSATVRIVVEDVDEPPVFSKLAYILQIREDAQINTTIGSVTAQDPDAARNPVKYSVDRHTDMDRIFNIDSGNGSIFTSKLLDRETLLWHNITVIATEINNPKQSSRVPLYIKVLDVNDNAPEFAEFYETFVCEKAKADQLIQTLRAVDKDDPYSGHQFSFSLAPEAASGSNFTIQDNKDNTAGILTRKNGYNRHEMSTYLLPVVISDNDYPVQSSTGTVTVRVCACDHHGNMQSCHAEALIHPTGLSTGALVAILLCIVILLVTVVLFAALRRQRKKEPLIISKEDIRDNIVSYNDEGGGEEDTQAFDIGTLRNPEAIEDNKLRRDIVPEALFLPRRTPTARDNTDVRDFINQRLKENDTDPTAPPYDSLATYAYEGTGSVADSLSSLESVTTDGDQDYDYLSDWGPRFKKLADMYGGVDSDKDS
Description: Cell-ELISA and flow cytometry screening of hybridoma supernatants on transfected cells. Here is the method:
A coloring reaction was carried out with occasional stirring. Thereafter, 1 M HCl was added to the plate (100 μL/well) to terminate the coloring reaction, followed by measurement of the absorbance at 490 nm using a plate reader (ENVISION: PerkinElmer, Inc.).
The obtained cell suspension was used in flow cytometry analysis.
The binding specificity to cynomolgus monkey CDH6 of an antibody produced from the human CDH6- and cynomolgus monkey CDH6-binding antibody-producing hybridomas that had been selected by Cell-ELISA in Example 1)-4 was further confirmed by flow cytometry. […] Thereafter, the cells were suspended by the addition of the culture supernatant from each hybridoma. The cells were left standing at 4° C. for 1 hour. The cells were washed twice with PBS supplemented with 5% FBS, and thereafter, the cells were suspended by the addition of Anti-Rat IgG FITC conjugate (Sigma-Aldrich Co. LLC) that had been 500-fold diluted with PBS supplemented with 5% FBS. The cells were left standing at 4° C. for 1 hour. The cells were washed twice with PBS supplemented with 5% FBS, and then re-suspended in PBS supplemented with 5% FBS and 2 μg/ml 7-aminoactinomycin D (Molecular Probes, Inc.), followed by detection using a flow cytometer (FC500; Beckman Coulter, Inc.).

B1: rat anti-CDH6 monoclonal antibody rG019 (antibody, IgG2b, V domains shown)
VH: QVQLQQSGAELVKPGSSVKISCKASGYTFTRNFMHWIKQQPGNGLEWIGWIYCGDGETEYNQKFNGKATLTADRSSSTAYMELSRLTSEDSAVYFCARGVYGGFAGGYFDFWGQGVMVTVSS
VL: DIQMTQSPSLLSASVGDRVTLNCKASQNIYKNLAWYQQKLGEGPKLLIYDANTLQTGIPSRFSGSGSGSDFTLTISSLQPEDVATYFCQQYYSGWAFGGVTNLELKRA
notes: Rat antibody purified from hybridoma supernatant; also called rG019 antibody; clone rG019
In the case of B1, the binding result in test [1] and in test [2] was “binds” each time.
